“And” between values parts separate entries of the source, which are not always exact repeats. Identical values can stand only once.
Target: ILz(6):TRAIL (human) (UniProt P50591)
Experiment: SEC

With “ILz(6):TRAIL (from UniProt P50591 114-281) (ligand)” the stoichiometry N was 3 and 6.
